Assay results as given in PMC7382273, “Rubisco accumulation factor 1 (Raf1) plays essential roles in mediating Rubisco assembly and carboxysome biogenesis” (Proceedings of the National Academy of Sciences of the …, 2020).

B1: Rubisco large subunit RbcL (Synechococcus elongatus PCC7942), recombinant, in the RbcL-Raf1 supercomplex (natural protein, UniProt Q31NB3 1-472, looked up)
chain: MPKTQSAAGYKAGVKDYKLTYYTPDYTPKDTDLLAAFRFSPQPGVPADEAGAAIAAESSTGTWTTVWTDLLTDMDRYKGKCYHIEPVQGEENSYFAFIAYPLDLFEEGSVTNILTSIVGNVFGFKAIRSLRLEDIRFPVALVKTFQGPPHGIQVERDLLNKYGRPMLGCTIKPKLGLSAKNYGRAVYECLRGGLDFTKDDENINSQPFQRWRDRFLFVADAIHKSQAETGEIKGHYLNVTAPTCEEMMKRAEFAKELGMPIIMHDFLTAGFTANTTLAKWCRDNGVLLHIHRAMHAVIDRQRNHGIHFRVLAKCLRLSGGDHLHSGTVVGKLEGDKASTLGFVDLMREDHIEADRSRGVFFTQDWASMPGVLPVASGGIHVWHMPALVEIFGDDSVLQFGGGTLGHPWGNAPGATANRVALEACVQARNEGRDLYREGGDILREAGKWSPELAAALDLWKEIKFEFETMDKL
notes: RbcL, large subunit of ribulose-1,5-bisphosphate carboxylase/oxygenase, Synechococcus elongatus PCC7942, gene synpcc7942_1426 amplified from genomic DNA; The complex was captured on Ni-IMAC as a 'His-fusion complex'; also called RbcL8; RbcL8 core; source: E. coli BL21 DE3, co-expressed with Raf1 (pET19b-RbcL-Raf1) and GroES/EL, purified as a complex (Ni-IMAC, Superdex 200)
B2: Rubisco accumulation factor 1 (Raf1) (Synechococcus elongatus PCC7942), recombinant (natural protein, UniProt Q31Q05 1-356, looked up)
chain: MREFTPTTLSEEERQELLGQLRRKEGRWLAWARACQTLLKNGLNPQTLFEATGFEPIQQNQITVAMQVYDSILRQDPPAHVRETYQEWGSDLLYELRELDQEQRSLCAQLALERKLDADQIREVAKATKDFCRLPKQPENFDRHPGDAVAHQCWRLAQERTDLTERSRLIARGLQFAQSAGARALIEALLLDLSGVPSRKPPMLPIYRLETEEDLPRLLPFAGTLPLSSSQIEAIAAVEAEGPFGLVSSPQGQQWLALPGWQAILTAEDPIACLEQIDRLPNAPEGPTEAVVLVVDRADRDWDADHFFLVEQAEGARIQWSPSAIAAPILGRLVLILRPKRVLDEAAIATPWQFEE
notes: Raf1, Rubisco accumulation (assembly) factor 1, Synechococcus elongatus PCC7942, gene synpcc7942_0833 amplified from genomic DNA; N-terminal α-helical domain (Raf1α), flexible linker, C-terminal β-sheet dimerization domain (Raf1β); Only the Raf1α domains are modelled in PDB 6SMH; Raf1β could not be resolved; Four Raf1 dimers (eight chains) sit on one RbcL8 core; also called Rubisco assembly …

Target: the molecule itself
Assay: cryo-EM structure; RbcL-Raf1 supercomplex co-expressed with GroES/EL in E. coli, purified by Ni-IMAC and Superdex 200; 1.2 mg/mL on Quantifoil grids; 200 kV Tecnai F20; 16,022 particles; 4.28 Å

Protein	stoichiometry N
B1	8
B2	2
